Experimental data from paper PMC11091212, “Microfibril-associated glycoprotein 4 forms octamers that mediate interactions with elastogenic proteins and cells” (Nature Communications, 2024).
Residue numbers refer to the chain shown, from its start. Names and notes keep the numbering of the source.

B1: Microfibril-associated glycoprotein 4 (natural protein, human, UniProt P55083 22-255, looked up)
chain: VSGIRGDALERFCLQQPLDCDDIYAQGYQSDGVYLIYPSGPSVPVPVFCDMTTEGGKWTVFQKRFNGSVSFFRGWNDYKLGFGRADGEYWLGLQNMHLLTLKQKYELRVDLEDFENNTAYAKYADFSISPNAVSAEEDGYTLFVAGFEDGGAGDSLSYHSGQKFSTFDRDQDLFVQNCAALSSGAFWFRSCHFANLNGFYLGGSHLSYANGINWAQWKGFYYSLKRTEMKIRRA
modifications: intermolecular disulphide bond between C34 of two monomers; N-glycosylated at N87 and N137 (cryo-EM density)
notes: signal peptide in the construct; Q21 is the first residue after signal peptide cleavage; Octamer (8 copies) in TBS with 2 mM Ca2+; tetramer (4 copies) after Ca2+ depletion with EDTA or EGTA; also called MFAP4; source: HEK293 EBNA cells, transfected (pCEP4-MFAP4), conditioned medium, purified by nickel chelating chromatography
B2: MFAP4_(C34S) (natural protein, human, UniProt P55083 22-255, looked up)
chain: B1 chain with C13S
notes: signal peptide in the construct; human MFAP4, M1KAL...IRRA255 with C34S; Q21 is the first residue after signal peptide cleavage; Octamer in TBS with Ca2+; tetramer after Ca2+ depletion; No intermolecular disulphide bond; also called MFAP_(C34S); source: HEK293 EBNA cells, transfected (pCEP4-MFAP4_(C34S)), conditioned medium, purified by nickel chelating chromatography
B3: fibrillin-1 centre region fragment rF1M (domain or fragment)
chain: not shown

Columns and labels:
[1] = target: the molecule itself; assay: cryo-EM structure; MFAP4 after Ca2+ depletion with 5 mM EDTA; single particle analysis, C2 symmetry; tetramer
[2] = target: the molecule itself; assay: dynamic light scattering; TBS/Ca2+ (2 mM); mass from hydrodynamic radius by calibration with standard proteins, globular model; monomers to octamer
[3] = target: the molecule itself; assay: SPR; self-interaction of octamers; Biacore X, CM5 chip, MFAP4 or MFAP4_(C34S) amine-coupled (300-500 RU), same protein as analyte 5-100 µg/mL in TBS/Ca2+ (50 mM Tris-HCl pH 7.4, 150 mM NaCl, 2 mM CaCl2); 1:1 Langmuir fit, KD is the average over five concentrations
[4] = target: the molecule itself; assay: SDS-PAGE; non-reducing, 10% gel, Coomassie stain; disulphide-linked dimer
[5] = target: T1, latent transforming growth factor beta binding protein-4, long isoform (UniProt Q8N2S1-1 28-1624); assay: SPR; Ca2+ form (octamer): MFAP4 or MFAP4_(C34S) amine-coupled on CM5 (Biacore X), elastogenic proteins as analytes 5-100 µg/mL in TBS/Ca2+ (2 mM CaCl2); 1:1 Langmuir fit, KD is the average over five concentrations; details: both partners purified
T1 construct: LTBP4, long isoform (LTBP4L); also called LTBP4L

[6] = target: T2, recombinant human tropoelastin (human, UniProt P15502 27-786); assay: as above; details: both partners purified
T2 construct: human tropoelastin, recombinant; source: bought: Elastagen
T2 sequence (looked up): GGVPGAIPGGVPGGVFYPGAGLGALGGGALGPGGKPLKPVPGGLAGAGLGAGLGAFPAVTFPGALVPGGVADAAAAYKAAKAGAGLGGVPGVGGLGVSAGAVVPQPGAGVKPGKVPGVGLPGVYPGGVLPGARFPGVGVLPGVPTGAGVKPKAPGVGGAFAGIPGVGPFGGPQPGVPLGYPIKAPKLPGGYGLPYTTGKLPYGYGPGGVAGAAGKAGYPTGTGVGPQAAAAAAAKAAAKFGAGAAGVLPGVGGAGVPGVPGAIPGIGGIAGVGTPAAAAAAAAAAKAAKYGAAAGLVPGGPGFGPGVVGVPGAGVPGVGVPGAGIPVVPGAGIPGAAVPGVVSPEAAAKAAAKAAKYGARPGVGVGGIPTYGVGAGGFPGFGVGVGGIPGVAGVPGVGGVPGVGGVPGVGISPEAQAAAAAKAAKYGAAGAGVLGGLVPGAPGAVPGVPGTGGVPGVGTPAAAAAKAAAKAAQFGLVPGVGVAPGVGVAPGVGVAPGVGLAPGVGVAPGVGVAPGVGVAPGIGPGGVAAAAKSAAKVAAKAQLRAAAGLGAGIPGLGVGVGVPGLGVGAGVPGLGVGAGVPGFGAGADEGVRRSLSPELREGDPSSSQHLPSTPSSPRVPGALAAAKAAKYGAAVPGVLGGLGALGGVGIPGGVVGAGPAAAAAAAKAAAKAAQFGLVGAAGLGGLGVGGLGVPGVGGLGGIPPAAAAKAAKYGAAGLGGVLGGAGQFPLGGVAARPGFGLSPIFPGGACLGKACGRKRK

fibulin-5 = target: T3, fibulin-5 (UniProt Q9UBX5 24-448); assay: as above; details: both partners purified
T3 construct: fibulin-5, recombinant
T3 sequence (looked up): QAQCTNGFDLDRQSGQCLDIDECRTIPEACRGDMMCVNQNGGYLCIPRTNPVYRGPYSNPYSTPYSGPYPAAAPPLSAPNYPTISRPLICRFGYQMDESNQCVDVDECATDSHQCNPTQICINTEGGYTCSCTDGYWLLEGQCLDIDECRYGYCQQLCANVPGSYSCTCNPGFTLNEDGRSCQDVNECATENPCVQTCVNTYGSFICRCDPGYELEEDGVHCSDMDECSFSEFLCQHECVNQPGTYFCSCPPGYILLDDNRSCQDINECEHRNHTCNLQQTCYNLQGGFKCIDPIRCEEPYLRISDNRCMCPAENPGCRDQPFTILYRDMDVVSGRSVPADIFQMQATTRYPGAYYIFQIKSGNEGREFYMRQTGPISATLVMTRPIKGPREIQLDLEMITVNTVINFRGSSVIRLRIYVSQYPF

fibulin-4 = target: T4, fibulin-4 (UniProt O95967 24-443); assay: as above; details: both partners purified
T4 construct: fibulin-4, recombinant
T4 sequence (looked up): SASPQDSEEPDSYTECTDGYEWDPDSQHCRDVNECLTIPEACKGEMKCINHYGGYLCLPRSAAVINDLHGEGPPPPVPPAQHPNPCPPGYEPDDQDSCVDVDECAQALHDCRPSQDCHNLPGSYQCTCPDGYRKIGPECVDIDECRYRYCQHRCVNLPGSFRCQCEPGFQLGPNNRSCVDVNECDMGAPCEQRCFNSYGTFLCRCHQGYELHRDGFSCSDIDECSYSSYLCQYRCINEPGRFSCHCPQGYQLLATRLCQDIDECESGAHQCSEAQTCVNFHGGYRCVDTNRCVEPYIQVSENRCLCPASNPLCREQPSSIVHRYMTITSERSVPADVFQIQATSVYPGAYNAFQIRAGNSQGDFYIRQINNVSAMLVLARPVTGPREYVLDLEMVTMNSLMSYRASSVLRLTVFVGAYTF

[7] = target: the molecule itself; assay: atomic force microscopy; MFAP4 or MFAP4_(C34S) Ca2+-depleted (5 mM EDTA); particle heights on mica, tapping mode in air
[8] = target: B1; assay: SPR; Ca2+ form (octamer): MFAP4 or MFAP4_(C34S) amine-coupled on CM5 (Biacore X), elastogenic proteins as analytes 5-100 µg/mL in TBS/Ca2+ (2 mM CaCl2); 1:1 Langmuir fit, KD is the average over five concentrations; details: both partners purified

T1 sequence (Q8N2S1 28-1624): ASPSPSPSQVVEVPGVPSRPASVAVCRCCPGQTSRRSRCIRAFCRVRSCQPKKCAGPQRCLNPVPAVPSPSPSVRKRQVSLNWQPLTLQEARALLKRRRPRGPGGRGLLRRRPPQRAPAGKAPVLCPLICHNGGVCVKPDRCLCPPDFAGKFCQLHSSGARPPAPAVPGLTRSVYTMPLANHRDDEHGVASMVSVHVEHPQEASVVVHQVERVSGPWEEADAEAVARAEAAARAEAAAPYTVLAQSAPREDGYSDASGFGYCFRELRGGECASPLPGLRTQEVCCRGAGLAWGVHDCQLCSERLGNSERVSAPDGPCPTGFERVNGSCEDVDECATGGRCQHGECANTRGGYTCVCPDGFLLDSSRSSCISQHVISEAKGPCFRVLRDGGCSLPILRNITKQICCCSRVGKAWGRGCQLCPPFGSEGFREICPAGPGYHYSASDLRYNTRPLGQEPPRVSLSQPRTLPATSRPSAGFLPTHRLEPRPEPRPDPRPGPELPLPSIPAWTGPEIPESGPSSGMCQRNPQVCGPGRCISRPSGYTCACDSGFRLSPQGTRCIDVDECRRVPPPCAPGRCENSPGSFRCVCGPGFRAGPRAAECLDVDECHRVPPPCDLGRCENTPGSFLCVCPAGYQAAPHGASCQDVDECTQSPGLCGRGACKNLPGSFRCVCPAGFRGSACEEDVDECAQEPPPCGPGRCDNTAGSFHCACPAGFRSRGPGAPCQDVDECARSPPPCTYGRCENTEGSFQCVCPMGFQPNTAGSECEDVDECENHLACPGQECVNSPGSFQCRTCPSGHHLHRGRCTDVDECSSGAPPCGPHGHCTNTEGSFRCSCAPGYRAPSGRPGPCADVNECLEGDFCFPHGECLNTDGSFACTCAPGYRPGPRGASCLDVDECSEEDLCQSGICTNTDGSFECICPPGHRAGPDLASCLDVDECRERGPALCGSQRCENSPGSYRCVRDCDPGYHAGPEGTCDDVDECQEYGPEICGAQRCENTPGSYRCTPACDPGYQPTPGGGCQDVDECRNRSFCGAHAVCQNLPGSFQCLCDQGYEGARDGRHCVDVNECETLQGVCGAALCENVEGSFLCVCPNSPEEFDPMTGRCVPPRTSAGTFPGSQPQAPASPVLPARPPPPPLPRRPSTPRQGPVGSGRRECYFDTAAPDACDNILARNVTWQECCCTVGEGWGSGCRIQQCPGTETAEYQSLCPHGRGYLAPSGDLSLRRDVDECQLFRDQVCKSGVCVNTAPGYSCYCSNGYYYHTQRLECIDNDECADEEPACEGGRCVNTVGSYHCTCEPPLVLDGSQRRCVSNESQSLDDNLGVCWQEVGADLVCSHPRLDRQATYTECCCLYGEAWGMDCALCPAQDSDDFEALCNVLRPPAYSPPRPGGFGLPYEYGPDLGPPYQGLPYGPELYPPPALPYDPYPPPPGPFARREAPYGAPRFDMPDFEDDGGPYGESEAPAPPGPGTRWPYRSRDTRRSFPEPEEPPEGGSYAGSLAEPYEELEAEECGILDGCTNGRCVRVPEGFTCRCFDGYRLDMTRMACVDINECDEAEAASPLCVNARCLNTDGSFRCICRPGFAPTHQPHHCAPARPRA

Binder | stoichiometry N [1] | stoichiometry N [2] | Kd [3] [µM] | stoichiometry N [4] | Kd [5] [µM] | Kd [6] [µM] | Kd (fibulin-5) [µM] | Kd (fibulin-4) [µM] | stoichiometry N [7] | Kd [8] [µM]
B1 | 4 | 8 | 0.0062 | 2 | 0.018 | 0.045 | 0.357 | 0.11 | – | –
B2 | – | 8 | 0.0058 | – | – | – | – | – | 4 | –
B3 | – | – | – | – | – | – | – | – | – | 0.0012
